From publication PMC6483157, “Structure of the human ClC-1 chloride channel” (PLoS Biology, 2019)

Molecular target: the molecule itself
Experiment: cryo-EM structure; single-particle cryo-EM of purified ClC-1 in amphipol PMAL-C8; 20 mM Tris pH 7.5, 100 mM NaCl, 0.2 mM TCEP, no nucleotides or antibodies; also 20 mM BisTris pH 6.2 with 0.3 mM NAD; C2 symmetry applied

B1: human ClC-1 chloride channel (natural protein, UniProt P35523 1-988, looked up)
chain: MEQSRSQQRGGEQSWWGSDPQYQYMPFEHCTSYGLPSENGGLQHRLRKDAGPRHNVHPTQIYGHHKEQFSDREQDIGMPKKTGSSSTVDSKDEDHYSKCQDCIHRLGQVVRRKLGEDGIFLVLLGLLMALVSWSMDYVSAKSLQAYKWSYAQMQPSLPLQFLVWVTFPLVLILFSALFCHLISPQAVGSGIPEMKTILRGVVLKEYLTMKAFVAKVVALTAGLGSGIPVGKEGPFVHIASICAAVLSKFMSVFCGVYEQPYYYSDILTVGCAVGVGCCFGTPLGGVLFSIEVTSTYFAVRNYWRGFFAATFSAFVFRVLAVWNKDAVTITALFRTNFRMDFPFDLKELPAFAAIGICCGLLGAVFVYLHRQVMLGVRKHKALSQFLAKHRLLYPGIVTFVIASFTFPPGMGQFMAGELMPREAISTLFDNNTWVKHAGDPESLGQSAVWIHPRVNVVIIIFLFFVMKFWMSIVATTMPIPCGGFMPVFVLGAAFGRLVGEIMAMLFPDGILFDDIIYKILPGGYAVIGAAALTGAVSHTVSTAVICFELTGQIAHILPMMVAVILANMVAQSLQPSLYDSIIQVKKLPYLPDLGWNQLSKYTIFVEDIMVRDVKFVSASYTYGELRTLLQTTTVKTLPLVDSKDSMILLGSVERSELQALLQRHLCPERRLRAAQEMARKLSELPYDGKARLAGEGLPGAPPGRPESFAFVDEDEDEDLSGKSELPPSLALHPSTTAPLSPEEPNGPLPGHKQQPEAPEPAGQRPSIFQSLLHCLLGRARPTKKKTTQDSTDLVDNMSPEEIEAWEQEQLSQPVCFDSCCIDQSPFQLVEQTTLHKTHTLFSLLGLHLAYVTSMGKLRGVLALEELQKAIEGHTKSGVQLRPPLASFRNTTSTRKSTGAPPSSAENWNLPEDRPGATGTGDVIAASPETPVPSPSPEPPLSLAPGKVEGELEELELVESPGLEEELADILQGPSLRSTDEEDEDELIL
notes: human ClC-1 chloride channel, full length, from yeast codon-optimized cDNA; followed by a TEV cleavage site, GFP and His10; released from the Ni-beads by TEV protease; The models cover only part of the chain: membrane domain residues 115-589 (loop 254-261 missing) and trimmed CBS domains; The N terminus and helix A are not resolved; source: yeast strain PAP1500 (pEMBLyex4), 15-L bioreactors; …
binding result: binds
